Key:
[1] = target: recombinant protein HR212 (HR2–linker 1–HR1–linker 2–HR2) (SARS-CoV-2 Wuhan hu-1 strain); assay: native gel or EMSA; native PAGE of purified HR212
[2] = target: recombinant protein HR212 (HR2–linker 1–HR1–linker 2–HR2) (SARS-CoV-2 Wuhan hu-1 strain); assay: SPR; Biacore 3000; HR212 fixed to a flow cell of a CM5 sensor; HR1 at 12.5, 25, 50, 100, 200 nM flowed over; 25°C

**Q.** With “recombinant protein HR212 (HR2–linker 1–HR1–linker 2–HR2)” as the substance, how does the stoichiometry N [1] read?
**A.** The stoichiometry N was 3.

**Q.** Which results are given for “HR1 (heptad repeat 1 domain of the SARS-CoV-2 spike S2 subunit) (domain or fragment)”?
**A.** Kd [2]: 0.12 nM; koff [2]: 1.4e-05 s⁻¹; kon [2]: 120000 M⁻¹ s⁻¹

— PMC11808191
